The DeepSol protein solubility set

Test: soluble on expression in E. coli; label from the status in PepcDB or PDB records

Soluble on expression in E. coli, soluble:
MKFKYGATLFSGFLGLSAILAACGAKGKFDQVDDGKIVLASSLTSKNAANALQAVVEKYNQVKGGNDYPIEITQITGGYDGGRGNLQTKLSVKDKTTFYNLI
MSLTARRFLNELADLYGVATSYTDYKGAHIEVSDDTLVKILRALGVNLDTSNLPNDDAIQRQIALFHDREFTRPLPPSVVAVEGDELVFPVHVHDGSPADVHIELEDGTQRDVSQVENWTAPREIDGIRWGEASFKIPGDLPLGWHKLHLKSNERSAECGLIITPARLSTADKYLDSPRSGVMAQIYSVRSTLSWGMGDFNDLGNLASVVAQDGADFLLINPMHAAEPLPPTEDSPYLPTTRRFINPIYIRVEDIPEFNQLEIDLRDDIAEMAAEFRERNLTSDIIERNDVYAAKLQVLRAIFEMPRSSEREANFVSFVQREGQGLIDFATWCADRETAQSESVHGTEPDRDELTMFYMWLQWLCDEQLAAAQKRAVDAGMSIGIMADLAVGVHPGGADAQNLSHVLAPDASVGAPPDGYNQQGQDWSQPPWHPVRLAEEGYIPWRNLLRTVLRHSGGIRVDHVLGLFRLFVMPRMQSPATGTYIRFDHNALVGILALEAELAGAVVIGEDLGTFEPWVQDALAQRGIMGTSILWFEHSPSQPGPRRQEEYRPLALTTVTTHDLPPTAGYLEGEHIALRERLGVLNTDPAAELAEDLQWQAEILDVAASANALPAREYVGLERDQRGELAELLEGLHTFVAKTPSALTCVCLVDMVGEKRAQNQPGTTRDMYPNWCIPLCDSEGNSVLIESLRENELYHRVAKASKRDEGHHHHHH
MKNFVRTTLLAATLAGVSFGAFATAVPNPPLPAQDPIVQHLKLTNDQITRIKKLHQQLETDVSQISMKGIKDGALIEVIKSGKWDDAAVKQQLAAFSNIEQQARYYRVKYYFDLSKVLTPEQRQQVQQDLAQALELEHHHHHH
MIGNFTIVDGHVHTFSSEEVSLKVLKSFNKIYNIEFENPGTGTIEDVLNNMKNEGIDYTVMANFAPVKILHANNKWTLEEARKHPNLIPLVSFHPDMDVSFTSLLEEYISDGAKGIKLHPMAQGFDPRDERLKGLYEFCNDIAFPIVFHCGRVANARLNSFSDVETLEPLIAMYENISFVLTHMADGNVKDVLRLSRTYKNVYFDTSIVISGYPPIRETNKPSWLDDSIPEGVINEIGAHRVVFGSDYPWGSPAWDLKRFMSMKLDDEEKKNILGENAMKLFLNTAYN
MDSSVPMIDLSSGDDEEVEVAMRRSYLLPPVPERPDGFPSLLFGNGNLSRSTLSINQEISMAPSPFSEITVSSQRPLVARSGSNSSEHNLQIKEAVKKKPVADIAHVSGTFVCVCVRGAQKNFYQKYLIATPSIPKLNTFE
MKTFEVMIQTDSKGYLDAKFGGNAPKAFLNSNGLPTYSPKISWQKVEGAQSYALELIDHDAQKVCGMPFVHWVVGNIAHNVLEENASMMDKRIVQGVNSLTQGFIRSPLNESEKQRSNLNNSVYIGPMPPNGDHHYLIQVYALDIPKLALKAPFFLGDLHDKMRNHIIAIGRKEFLYKQFVRK
MGHHHHHHQQIMKGNFSSFMQKEIFEQPESVVNTMRGRVNFDDYTVNLGGLKDHIKEIQRCRRLILIACGTSYHAGVATRQVLEELTELPVMVELASDFLDRNTPVFRDDVCFFLSQSGETADTLMGLRYCKERGALTVGITNTVGSSISRETDCGVHINAGPEIGVASTKAYTSQFVSLVMFALMMCDDRISMQERRKEIMLGLKRLPDLIKEVLSMDDEIQKLATELYHQKSVLIMGRGYHYATCLEGALKIKEITYMHSEGILAGELKHGPLALVDKLMPVIMIIMRDHTYAKCQNALQQVVARQGRPVVICDKEDTETIKNTKRTIKVPHSVDCLQGILSVIPLQLLAFHLAVLRGYDVDFPRNLAKSVTVE
VADEYKWALASIYETDDEWEAAFEDVQAELDALNDYEGRLTEDGETLLAALELRDAVYRDAKTVSAYASMRSDEDTRDQEYQALQARGASLMTDVSSATSFFDPELQACTREQLQSMIEETPELAAYEHYFDDVLRMKPHTRSAEVEGLLSELGEVFGAPSDAYNMLTDADLEFPTVEDPAGDAVEISQSN

Soluble on expression in E. coli, not soluble:
GPGSTRCQRERLLYVRRFDPVRGYHLRAAEDISVGTIIFQDECRPVRLCTKPYALQHFSKADYVDFQHNAWPVGRDGHYYALWDHDPAQWRAFNHSCEPNMSFAPMRSLDVVALRNIPKGEELTMDYRQFMDSTMPGFQCNCGTEKCEGFVSPGSLVDSPTAKIASQPTVALRHNIAVRLNPI
MGSDKIHHHHHHMIRKIIKIDKEKCNGCGACASACHEGAIDIIDGKAELVREHFCDGLGDCLPECPTGAISFEERDAPAYDEEAVKEAQKKIAAKNRAISSHSGCPGSKIMQIRRTETSEPVKATSTADSGSKLQNWPVQIKLAPVNAPYFNGSKLLIAADCTAYAYAAFHQDFIRNKVTLIGCPKLDQVDYSEKLTAIIQNNSIQSVTIVRMEVPCCGGLEIAAKKALQASGKFIPWQVVTISIDGKIME
MGSDKIHHHHHHILVKNKIDNEFNWISMKEEQKLNVPIENQMPDLPNGCEVTSLSMLMNYYGIRVTKNELAQNIQHVSSFTNNGKYRGNPNQGFVGYMSIENAGWCVYNGPLYNVARKYTNRIQNATGSDFLSILKLVSDGHPVLIITTTTFNRVNNMQTWETNTGKVNVTPSSHACVITGYDKKKRIVYLNNPYGIKNQAVNWNNLENSYNQQGKQALYIK
MSLFFHSDVLSVSELNAFAKSLLENHLAGLWIAGEVSNLTRAASGHYYFSLKDSRAQVRCAMFKGAAVRLAKPLKEGDHIEVSGKISIYEARGEFQITVNEVRLKGLGQLYEAYERLKAQLQAEGAFAAERKKPLPVRPQCIGIVTSLAAAALRDVVTTLKRRAPEIPVIVYPTPVQGAGSELQIAQAIKTASQRAECDVLIVCRGGGSIEDLWAFNEEPVVRAIESCTVPVVSGVGHETDFTLADFVADMRAPTPTGAAELVSPNRQESLHRLAQAQCRLKTVLEQRYFDASQKLDWLARQIRHPRQKLDEQRASIGKLAQTLSYSMTQNVRTHTARFERQTQALKHCRPDVSVCKKNIDRFQTALSHAFHQLLTHRRQSLTAQAALLEAVSPQHILERGFSVVKNTRGQVIRNADVLKQGQKLHIIFADGETDVRVSKEQGQQDLFDCIEGHHHHHH
MGSDKIHHHHHHMADISIEQSMQLFELQPGKSLDLQINNPVSLRLKLPLIGYELGKYIILKYPKSANTSEYKDVLIEGNVLIVRYLMEGNKGECFAFRSSIKNITQYPEKFIFIEYPNKIENRQLRLQQRTSIHLPAIIMLESSGDNKKTQINGIIGDISAKGCGFTFKTKSTSTKVNKRDIFVCLRSPIDGEVQIPARVCNSRNDNGTVNVGIQFIDNEKLVPKLLSELFIENTMS
NDPEWFAIVKWTLFAMLNAEEAKITSKNVEAEAKATKNPDVARMLGADGTYGKDLNLPKDWVVQIVKQVGNYGEVFERNLGEGTPLKIKRGQNALWNAGGIQYAPPIR
MGSDKIHHHHHHMNALRLEDLISVEMLQKVQDNFSAAVGIAMIIVDERGTPVTRPSNFSAFCQTIRTSAARRDQCFQCDDDGGRRAMAMGEPSIYQCHCGLVDFAAPIIVRDQYLGAVISGQVRLRQGHEVTLEYIAPPDESWRQDAHLIALREKITEIPYVKLRSAAYTLYHLAAYLVEESYSNAVSQELSAKNLKLMEESKRRVELEKSLREAELQALSYQVNPHFLFNVLNTIGRLALKEHAPKTEDMLYAFADMMRYVLKKSRSQIVSLQTEVGHVRNYLHIQKVRMGDRFTFTMDVPAKYDGILCPFMVLHPIVENSINYAIEPHEADGRIEITARDDGLNMILRVVDNGDGVSPELVRAALDGVAEPHGRTSIGLHNVDSRLRHFFGPDYGLTVESPATPGGRHGRRDALSPGLRSLRHLNACAEERRLCTALSLLKTRNSSARRCAPF
MKKVSSQILHQLRSQRGQSGMWCTNLTHSSTTHHQHPRQTSSHLLQRLESAPCLLKLSTTLLCLEIQQSMSLHPKEAILTTPDAVHREKMLTRSRKGDQTHEDQTDGTRKARNNIGPPNLFWITAKFQEQSTKMPNCWCLQLVNCAQSSILIGLWML
